According to publication PMC10823590:

Molecular target: ST2 receptor (isolated protein used in ELISA and in the fluorescence emission assay) (UniProt Q01638)
Experiment: fluorescence emission before and after incubation with the receptor; IL-33 analogues at 50 ug/mL, fluorescence emission measured before and after incubation with ST2 at 200 ug/mL, n = 3

fold increase of fluorescence emission upon receptor binding: 4 fold
Substance: IL-33(6) (from UniProt O95760 1-270) (ligand)
